# Measured values published in patent US20030021770A1.
# Molecular target: mini-MUC1 polypeptide (product of the miMUC1 gene, human DF3/MUC1 with 7 variant tandem repeats) (human) (UniProt P15941)
# Experiment: flow cytometry, 1 ug/ml DF3 MAb on MC38/MUC1 cells, fluorescein-labeled goat anti-mouse IgG
# UniProt P15941, sequence (P15941 other isoform, or with tags, fused parts or gaps mutant, form in doubt): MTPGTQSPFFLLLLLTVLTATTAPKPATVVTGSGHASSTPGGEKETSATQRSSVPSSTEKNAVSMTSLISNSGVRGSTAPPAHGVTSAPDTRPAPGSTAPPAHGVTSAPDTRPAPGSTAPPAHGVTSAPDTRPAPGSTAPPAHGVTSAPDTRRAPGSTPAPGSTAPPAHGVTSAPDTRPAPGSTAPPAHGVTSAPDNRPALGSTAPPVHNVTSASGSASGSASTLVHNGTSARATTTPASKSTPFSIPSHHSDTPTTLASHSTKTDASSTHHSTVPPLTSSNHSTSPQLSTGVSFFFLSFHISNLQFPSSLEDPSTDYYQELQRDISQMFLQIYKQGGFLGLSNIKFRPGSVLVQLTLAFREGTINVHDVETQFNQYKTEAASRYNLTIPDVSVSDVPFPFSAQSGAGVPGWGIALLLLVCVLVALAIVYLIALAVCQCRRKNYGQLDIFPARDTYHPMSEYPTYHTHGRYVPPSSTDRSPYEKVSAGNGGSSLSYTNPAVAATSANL
substance,measurement,value
DF3 monoclonal antibody (anti-MUC1),mean fluorescence,400
same,percent of cells positive,87.5%
